Measured values published in US8637043B2, “Compositions useful as ligands for the formyl peptide receptor like 1 receptor and methods of use thereof” (Chemocentryx, Inc., priority 2001, dated 2014).
Values joined by “and” are separate entries in the source; they are usually repeats but may differ in a detail not shown here. Equal entries are not always repeated. Ends that are not written are not given here.

Tests used:
human monocytes = assay: Migration assay (ChemoTx), human monocytes; type: cell-based; conditions: 90 min, 1-100 nM
Method: Migration assays were performed on monocytes and neutrophils. Human monocytes and neutrophils (prepared as in Exampe 2) were harvested and resuspended in chemotaxis medium (CM). The CM consisted of Hank's buffered salt solution (Gibco, Mass.) containing CaCl2 (1 mM) and MgSO4 (1 mM) with added 0.1% BSA (Sigma, St. Louis, Mo.). The assays were performed in 96-well ChemoTx® microplates (Neuroprobe, Mass.). Leukotactin, MlP-1α and chemokines (CKβ8(1-99), CKβ8(25-99), CKβ8-1(1-116) or CKβ8-1(25-116), prepared as in Example 1) were added to the lower wells (final volume 29 μL), and 20 μL of cell suspension (5×10^6 cells/mL for monocytes; 2.5×10^6 cells/mL for neutrophils) added to the polycarbonate filters (5 μm pore size for monocytes; 3 μm pore size for neutrophils). After incubation for 90 min (37° C., 100% humidity, 5% CO2), cells were removed from the upper surface of the filter by scraping. Cells that migrated into the lower chamber were quantified using the Quant cell proliferation assay kit (Molecular Probes, Oreg.).
The chemotactic activity on human monocytes and neutrophils of chemokines: CKβ8(1-99), CKβ8(25-99), CKβ8(1-116) and CKβ8(25-116); W peptides 1 and 2 and the SHAAGtide sequences SEQ ID NO:1 and SEQ ID NO:2 was determined in migration assays. The above peptides were prepared as in previous examples. The migration assays were performed in 96-well CHEMOTX® microplates (Neuroprobe) using the protocol described in Example 5.

neutrophils = assay: Cross-desensitization with leukotactin, neutrophils; type: cell-based, human
Method: (§1) In cross-desensitization tests tests, cells were stimulated sequentially with leukotactin and then the chemokines CKβ8(1-99), CKβ8(25-99), CKβ8-1(1-116), and CKβ8-1(25-116). On HEK293-CCR1 transfectants (prepared as in Example 1), leukotactin induced similar patterns of receptor desensitization to all variants.
(§2) Similar receptor cross-desensitization tests were performed using both monocytes and neutrophils (prepared as in Example 2).

monocytes [1] = assay: 125I-MIP-1α binding competition, monocytes; parameters: species or system human; conditions: for IC50: Monocytes; for MIP-1α displacement on monocytes compared with HEK293-CCR1 cells: comparison in words
Method: The binding characteristics of CCL23 variants was compared in human CCR1 expressing cells. The ability of MIP-1α and the CCL23 variants CKβ8(1-99), CKβ8(25-99), CKβ8-1(1-116) and CKβ8-1(25-116) to compete with ^125I-MIP-1α binding was investigated in HEK293-CCR1 cells (prepared as in Example 1). The cells were incubated with ^125I-labeled MIP-1α (final conc. {dot over (˜)}0.05 nM) in the presence of unlabeled chemokine (3 hours at 4° C.: 25 mM HEPES, 140 mM NaCl, 1 mM CaCl2, 5 mM MgCl2 and 0.2% BSA, adjusted to pH 7.1). Reactions mixtures were aspirated onto PEI-treated GF/B glass filters using a cell harvester (Packard). The filters were washed twice (25 mM HEPES, 500 mM NaCl, 1 mM CaCl2, 5 mM MgCl2, adjusted to pH 7.1). Scintillant (MicroScint-10; 35 μl) was added to dried filters and the filiters counted in a Packard Topcount scintillation counter. Data were analyzed and plotted using Prism software (GraphPad Software, San Diego, Calif.).
Simiar binding competition tests were conducted on monocytes and neutrophils. These cells were prepared as in Example 2.

monocytes [2] = assay: Cross-desensitization with leukotactin, monocytes; type: cell-based, human
Method: as §1, §2

IC50 (monocytes [1]) | Molecule | migration of monocytes (human monocytes) | desensitization by leukotactin prestimulation (neutrophils) | desensitization by leukotactin prestimulation (monocytes [2]) | MIP-1α displacement on monocytes compared with HEK293-CCR1 cells (monocytes [1]) | MIP-1α displacement activity on monocytes versus HEK293-CCR1 cells (monocytes [1]; fold higher on monocytes)
 | MLWRRKIGPQMTLSHAAG [SEQ ID NO: 1] | produced migration |  |  |  | 
0.25 nM | CKβ8(25-99): known truncated CKβ8 variant, human recombinant chemokine from R&D Systems (protein, listed as Homo sapiens) RFHATSADCCISYTPRSIPCSLLESYFETNSECSKPGVIFLTKKGRRFCANPSDKQVQVCMRMLKLDTRIKTRKN | moderate activity | inactive | completely desensitized |  | 
55 nM | CKβ8-1(1-116): alternatively spliced form of CKβ8, 116 amino acids, human recombinant chemokine (protein, listed as Homo sapiens) RVTKDAETEFMMSKLPLENPVLLDMLWRRKIGPQMTLSHAAGFHATSADCCISYTPRSIPCSLLESYFETNSECSKPGVIFLTKKGRRFCANPSDKQVQVCMRMLKLDTRIKTRKN | moderate activity | inactive | completely desensitized | higher MIP-1α displacement activities | 
5 nM and 5.1 nM | CKβ8-1(25-116): novel NH2-terminal truncated form of CKβ8-1, SEQ ID NO: 16, human recombinant chemokine (protein, listed as Homo sapiens) MLWRRKIGPQMTLSHAAGFHATSADCCISYTPRSIPCSLLESYFETNSECSKPGVIFLTKKGRRFCANPSDKQVQVCMRMLKLDTRIKTRKN | dramatically higher activity than the other three variants at 100 nM and 1 and 10 nM was very similar to the other variants and produced migration | did not desensitize | did not desensitize | higher MIP-1α displacement activities | over 10 fold
